The record followed here is PMC6771821, “Cryo‐EM structure of the MinCD copolymeric filament from Pseudomonas aeruginosa at 3.1 Å resolution” (Febs Letters, 2019).

The series deals with the molecule itself. The series is described as follows: cryo-EM structure; unsupported MinCD filaments in solution; MinC and MinD each 0.5 mg/mL combined in equal proportion in 20 mM HEPES-Na, 100 mM potassium acetate, 5 mM magnesium acetate, pH 7.0; 1 mM ATP, 15 min at room temperature; helical reconstruction.

B1: MinC from Pseudomonas aeruginosa, full-length, His6-tagged (natural protein, UniProt Q9HYZ7 1-263, looked up)
chain: MSQADLLDQDPVFQLKGSMLAVTILELAHNDLARLERQLADKVAQAPNFFRDTPLVMALDKLPEGEGRLDLPALLEVCRRHGLRTLAIRAGREEDIAAAQALDLPVLPPSGARERPLDIKDSAPRKPAEEPSPSAGEARPEPAKAEEKPAEPVSRPTKVVKTPVRGGMQIYAAGGDLIVLAAVSPGAELLADGNIHVYGPMRGRALAGVKGDATARIFCQQLAAELVSIAGNYKVAEDLRRSPQWGKAVHVSLSGDVLNITRL
notes: MinC (septum site-determining protein), Pseudomonas aeruginosa, residues 1-263, cloned into pET-15b; only residues 156-261 (MinC^C) are modelled in the cryo-EM map; the tag was not removed; also called MinC2 (dimer); source: E. coli C41(DE3), purified (HisTrap HP, dialysis); not shown: His6, N-terminal, kept
B1: the binding result is “binds”.
